According to the supplement of paper PMC12455559:
± gives the standard deviation of the averaged measurements.

Experiments:
[1] = PET hydrolysis, aromatic products released after 48 h (umol product/mg enzyme); higher = more PET depolymerization activity
Procedure: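 HTP-purified, SUMO-cleaved, tagless PET hydrolase candidates (5 ug, 1.43 mg/g PET) were incubated 48 h without shaking with 3.5 mg amorphous PET film (aFilm) or crystalline PET powder (cryPow) in 0.5 mL buffer: NaCitrate pH 4.5/5.5, NaPhosphate pH 6.5/7.5, glycine pH 8.5. Incubation was at 40 or 60 C. Aromatic products (TPA, MHET, BHET) in the supernatant were quantified by UV absorbance at 260/280 nm relative to buffer blanks and expressed per mg enzyme. LCC-ICCG was the positive control on every plate.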

[2] = melting temperature (DSF); higher = more thermostable
Procedure: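 Candidate PET hydrolases were expressed in E. coli C41(DE3) in 2 mL autoinduction cultures in 24-deep-well plates, Ni-bead purified and released by SUMO protease cleavage on an OT-2 robot. Yield per well was measured by BCA; values below 25 ug (0.1 mg/mL) are below the detection threshold. Melting temperature was measured by differential scanning fluorimetry with Sypro Orange, ramping from 25 C at 0.3 C/step.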

[3] = purified protein yield per well (BCA); higher = higher soluble expression
Outline: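 Purified protein yield per well is reported, as measured by the Pierce Rapid Gold BCA kit. The enzymes came from E. coli C41(DE3) autoinduction cultures of 2 mL with 100 µg/mL kanamycin, held at 37 °C for 2 h and 18 °C for 40 h, then lysed and purified on Ni-charged magnetic beads with SUMO protease release. The detection threshold is 25 ug (0.1 mg/mL), and lower values are under it.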

[4] = substrate: aFilm, 40 °C, pH 4.5
[5] = substrate: aFilm, 40 °C, pH 5.5
[6] = substrate: aFilm, 40 °C, pH 6.5
[7] = substrate: aFilm, 40 °C, pH 7.5
[8] = substrate: aFilm, 60 °C, pH 4.5
[9] = substrate: aFilm, 60 °C, pH 5.5
[10] = substrate: aFilm, 60 °C, pH 6.5
[11] = substrate: aFilm, 60 °C, pH 7.5
[12] = substrate: cryPow, 40 °C, pH 4.5
[13] = substrate: cryPow, 40 °C, pH 5.5
[14] = substrate: cryPow, 40 °C, pH 6.5
[15] = substrate: cryPow, 40 °C, pH 7.5
[16] = substrate: cryPow, 60 °C, pH 4.5
[17] = substrate: cryPow, 60 °C, pH 5.5
[18] = substrate: cryPow, 60 °C, pH 6.5
[19] = substrate: cryPow, 60 °C, pH 7.5

Row | Sequence | PET hydrolysis [1, 4] | PET hydrolysis [1, 5] | PET hydrolysis [1, 6] | PET hydrolysis [1, 7] | PET hydrolysis [1, 8] | PET hydrolysis [1, 9] | PET hydrolysis [1, 10] | PET hydrolysis [1, 11] | PET hydrolysis [1, 12] | PET hydrolysis [1, 13] | PET hydrolysis [1, 14] | PET hydrolysis [1, 15] | PET hydrolysis [1, 16] | PET hydrolysis [1, 17] | PET hydrolysis [1, 18] | PET hydrolysis [1, 19] | melting temperature [2] | purified protein yield per well [3] | PET hydrolysis ([1]; substrate: cryPow, 40 °C, pH 8.5) | PET hydrolysis ([1]; substrate: cryPow, 60 °C, pH 8.5)
1 | ADNPYQRGPDPTRTSVTAVNGPFANTSVSVPTGQGFNGGRIYYPTDTSQGTFGAVAISPGYTALFSAELAWMGPWLASHGFVVIGIETNSTNDFDTARGTQLLAALDYLTQRSSVRDRVDPNRLAVSGHSMGGGGALSAAARRSSLKAVVGITPYSPSSNLANVRVPTMVVSGQADTVVTPSYALNLYNSLPSTTESVYLEVAGGDHGFMVGRSNPVLVRTMLPFLKMFVDNDTRYSQFLCPLMDNSGVVTYRSTCPLLPTPTTPPPTTGPTTPPPTTPPTTTPPPSGSTGQIVGTQSNRCIDVPNSSRNNGTRVQLYDCHGQANQTWTYDSSTKQLRVYGDMCLDASGSGNGAAVQIYSCHNQTNQQWNINSNGTISGVQSNRCLDAWSTNNGAQIQLYDCHGQTNQQFRIRA [TEP168] | < 3 | < 3 | < 3 | < 3 | < 3 | < 3 | < 3 | < 3 | 4 | 9 | 9 ± 1.4 | 4.5 ± 0.71 | < 3 | < 3 | < 3 | < 3 | 65.2 C | 213 µg |  | 
2 | DEIGQAPTAGNITGNGSFTTTSESISSLVSGFGGGRVYYPTTAGKYPVVAISPGFTATWSSLSWIGPRLSSWGFVVVGIETNSIYDQPASRGSQLLAALNWAVNSSSSAVRARVDGSRRGVAGHSMGGGGTLEALAADTTGLVKAGVPIAPWNSDKTWNNVSEPVMIVGGQSDTVAPVASHSIPFYNTLAGPKGYVELTGASHFFPQSTNATLSRALVAWFKRWLNQDSRFTPYTCGFSGLAVSDFRSNAC [ESM090] |  |  |  |  |  |  |  |  | < 3 | 27 | 46 | 65 | < 3 | 12 | 35 | 51 | 68.5 C | 116 µg |  | 
3 | MAADNPYQRGPNPTSASVAASRGTFATAELSVPRGNGFGGGKIYYPTDTTQGTFGAIAIVPGYTATWAAEGAWMGHWLASFGFVVIGIDTNSRNDNDTARGTQLLAALDYLTQRSSVRGRVDAKRLAVMGHSMGGGGALVAARQRPSLKAAVGLAPFKPSGPPSADRVPTMVIAGQRDGTVTPSYVDGLYRAIPAGTEKAYLEFAGAGHAFPTRPNPLQMRLVIPWLKSFTDHDTRYHQFLCPLKDRTGVTAYRSTCPLVAPGARD [TEP041] | < 3 | < 3 | < 3 | < 3 | < 3 | < 3 | < 3 | < 3 | < 3 | < 3 | 3 | < 3 | < 3 | < 3 | < 3 | < 3 | 54.4 C | 427 µg |  | 
4 | QSPSAAANPYERGPDPTVSSVAAQRGTFATAEVTVPPGNGFNGGKIYYPTDTSLGTWGAVAAVPGYTARWSAEGAWMGPWLASFGFVVIGIDTNSPNDFDTARGTQLLAALDYLTQKSPVRDRVDPSRLGVIGHSMGGGGAISAAERRPSLKAALPLAPFSPSQNLSSLRVPTMIMGARDDGTVTPSYLDGLYGGMPATTQSAYIELTGGGHGFPTWGNSNVTRRTIPWLKIFLDNDTRYTQFLCPSPADRTGVSRSQTKCPYVPPGTTTPPPSGGQIVGAGSGRCLDVPNASQTNGTQLQLWDCSANANQKWARTGTGELRVYGNKCLDAEGAGTSPGTRVIIWDCHGGQNQRWNVNTSGTITRADPVCAWTRKATAPGTAPRRSWGTAMAGPASAGPSGSED [TEP122] |  |  |  |  |  |  |  |  | < 3 | < 3 | < 3 | < 3 | < 3 | < 3 | < 3 | < 3 | 54.1 C | 186 µg |  | 
5 | SSCDIMGDVNEDSEVDIVDALLIAQAYVGLNPTIEYHPCADVNCSGSVDIVDALLIAQKYVGLISEFSCQNTPEPTIEPTSAPVLNIACGSSSALGIFQEDQYYSGGSTHNNSNTIDVSRITVNTPPTGLFNNERYGEMSYTIPDLSAGDTYTVTLYFAETYLTSPGSRLFNVSINSTEVLTNFDIYAAAGGQNNGISQSFITTANTSGRIVIDFTAVTENPKINGISIVTGIGPTNIPTPEPTPTPENSGFQRGPDPSLESISANRGTFATAELTFPAGNGFGGGFIYYPTDTSLGTWAAVAICPGGSAKFANEETWMGHWLASFGFVVIGMETNNTYDYPESRGTQLLAALDYLTQKSAVKDRVDPDRLMVMGHSMGGGGAFHAAMARSSLKTMVALAPWFNSSLTSPSMTNLHMPAMIISARNDTVVTPASCSAIYDKIPTTTQRAWVELAADDHLGFTKSNPTEMRVLIPWMKIFLDNDERYVQFLCPIANSSNISVYKNSCPFVP [TEP039] |  |  |  |  |  |  |  |  | < 3 | < 3 | < 3 | < 3 |  |  |  |  | 50.8 C | 34.3 µg |  | 
6 | ADNPYQRGPDPTRTSVAAVNGPFANTSVSVPTGYGFNGGRIYYPTDTSQGTFGAIAISPGYTALFSAELAWMGPWLASHGFVVIGIETNSRNDFDTARGTQLLAALDYLTQQSPVRDRVDPNRLAVSGHSMGGGGALSAAIRRSSLKAVVGIAPYSPSSNLANDRVPTMVFSGQADTVVTPSYATGLYNSLPATTESVYLEVAGADHGFMVGRSNPVMIRTMLPFVKMFIDNDTRYSQFLCPLLDSSGVVTYRSTCPLLPPAPTPSNTGTTPPTTPPVTPTTPPSSASEIVGVQSGRCIDVPNASRNNGTRVQLYDCNRQANQSWTYTSGKQLQVYGNMCLDAAGSGNGAAVQIYSCHSQTNQQWNVNSNGTISGVQSGRCLDVWSTANGAQIQLYDCHGGANQRFNLVPRT [ESM058] | < 3 | < 3 | < 3 | < 3 | < 3 | < 3 | < 3 | < 3 | 5.5 ± 0.71 | 12.5 ± 0.71 | 11 | 4.5 ± 0.71 | < 3 | < 3 | < 3 | < 3 | 59.5 C | 281 µg |  | 
7 | APDTVVGNPFARGPDPTKESIEAERGPFAVATEKVPGGKGFGGGTIHYPTDTSQGTFGAIAVAPGFTESESAIAWYGPRLASQGFVVITISTNGLWDLPASRADQLLAALRHVTDASQIKSRVDRDRLAVMGHSMGGGGSLIAARNNPALKATIPLTGWNPNTSFSDLKVPTFVVSAQNDFIAPDGSHSRPFYQSLPASLNKAYMRLAGVGHMAPVNPNVTIAKYSISWLKRFVDNDTRYSQFLCPLPTGDPKIAAYEGTCPLS [DP008] |  |  |  |  |  |  |  |  |  | 4 | 20 | 40 |  | < 3 | 9 | 9 | 50.5 C | 67 µg | 50 | 9
8 | GSLAHIVMVDAYKPTKGSGASQTNPYARGPNPTAASLEASAGPFTVRSFTVSRPSGYGAGTVYYPTNAGGTVGAIAIVPGYTARQSSIKWWGPRLASHGFVVITIDTNSTFDYPSSRSSQQMAALRQVASLNGDSSSPIYGKVDTARMGVMGHSMGGGASLRSAANNPSLKAAIPQAPWDSQTNFSSVTVPTLIFACENDSIAPVNSHALPIYDSMSRNAKQFLEINGGSHSCANSGNSNQALIGKKGVAWMKRFMDNDTRYSTFACENPNSTAVSDFRTANCSLEGSGGSGAHIVMVDAYKPTK [TEP004] |  |  |  |  |  |  |  |  | 4 | 33 | 62 | 69 | < 3 | 14 | 76 | 82 | 73.9 C | 77.2 µg |  | 
9 | APPARVAALATTAYQRGPAPTLSGVRAALGPFSYSTASVSAAATGYTFGGGTVYYPDDTSQGTFGGIAVTPGYTGTEGSIAWLGPRLASQGFVVITIATKSLYDQPTARGQQLLAALDYLKTYSPAAVRQRLDPQRLAVSGHSMGGGGALYAVWSRPSLKAAVPLAPYHTIKNWSAITVPTLIEAGTADTVTPVGTFAEPIYQSLTGASERAYAEVAGANHLTFTAENPLIGGLEVAWMKRFVDDDARYDQFLCPAPTDPGLTEYRDSCPTS [TEP101] | < 3 | < 3 | < 3 | < 3 | < 3 | < 3 | < 3 | < 3 | < 3 | 9 ± 1.4 | 18.5 ± 0.71 | 24 ± 2.8 | < 3 | 3 | 7.5 ± 0.71 | 7.5 ± 0.71 | 56.5 C | 377 µg |  | 
10 | ATTSFQRGPAPTTASIQATSGPFATSQTTVSRISVTGFGGGDIYYPTSTSSGTFGAVAIAPGYTALRSSMAWLAPRIASQGFVVFNIDTLTTSDQPATRGTELLAALDYLTTRSTVRTRIDTTRLAVMGHSMGGGGTLEAAKSRPSLQAAIPLTPWDLNKSFAGLAVPTLIIGAQADTVAPVSQHAKPFFTSLPSGLDKAYLELAGASHFAPNTSNTTIASISIAWLKRFVDDDTRYDQFLCPGPTVGTAVSQFTTNCPHIS [ESM156] | < 3 | < 3 | < 3 | < 3 | < 3 | < 3 | < 3 | < 3 | < 3 | 9.5 ± 0.71 | 14.5 ± 5 | < 3 | < 3 | < 3 | < 3 | < 3 | 40.6 C | 272 µg |  | 
11 | AANPYERGPDPTDAILEAARGPFETSRTEVPALSVTGFGGGTIYYPATTSAGTFGGVAVAPGYTADRTSLAWLAERLASHGFVVFNIDTLTRLDQPDSRGRQLLAALDYLTQRSSVRGRLDAGRLGVMGHSMGGGGTLEAARDRPSLQAAVPLTPWDLTKIWSGVRVPTMIVGAEADTIAPVASHAEPFYQSLPSSPGKAYLELNNATHFAPNVPDTTIGKYVVAWMKRFVDDDTRYTRFLCPGPSGGLTVEEYRSTCPFS [TEP194] | < 3 | < 3 | < 3 | < 3 | < 3 | < 3 | 2 ± 2.8 | < 3 | 5 | 8.5 ± 0.71 | 7 | 1.5 ± 2.1 | 3.5 ± 0.71 | 7 | 3.5 ± 0.71 | < 3 | 50.8 C | 325 µg |  | 
